Molecular target: mixture of three Der p 2 specific recombinant human IgE clones H10, H12, P4E (human) (UniProt P01854)
Experiment: RBL-SX38 IgE displacement, FACS

Sequence of mixture of three Der p 2 specific recombinant human IgE clones H10, H12, P4E (human) (P01854 other isoform, or with tags, fused parts or gaps): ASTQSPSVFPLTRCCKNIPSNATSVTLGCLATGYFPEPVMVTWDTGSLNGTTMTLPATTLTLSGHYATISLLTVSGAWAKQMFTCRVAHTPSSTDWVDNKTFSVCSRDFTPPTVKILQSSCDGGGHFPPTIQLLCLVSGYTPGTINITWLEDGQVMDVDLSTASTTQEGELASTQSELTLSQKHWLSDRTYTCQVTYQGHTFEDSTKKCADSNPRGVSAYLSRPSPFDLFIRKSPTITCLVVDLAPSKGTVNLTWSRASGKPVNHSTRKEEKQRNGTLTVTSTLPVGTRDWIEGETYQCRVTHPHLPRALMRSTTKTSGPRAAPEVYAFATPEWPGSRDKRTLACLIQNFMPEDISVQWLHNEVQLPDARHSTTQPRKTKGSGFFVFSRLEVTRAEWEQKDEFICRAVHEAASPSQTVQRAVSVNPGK

Row | EC50 [nM] | Max effect/effect 1 µM [%] | Binder
1 | 2.1 | 99 | NIgG4E3A1(G4S)2 (Fc fusion) chain 1: DVQLQESGGGLVQAGGSLRLACAASGRTLSSYVVSWFRQAPGKERKFVAAITWSGLSTTYLDSVQGRFTISRDNTKDTVYLQMNSLKPQDTAIYYCAAGPNIPSILRTRESEYAYWGQGTQVTVSGGGGSGGGGSGPPCPPCPAPEFLGGPSVFLFPPKPKDTLMISRTPEVTCVVVDVSQEDPEVQFNWYVDGVEVHNAKTKPREEQFNSTYRVVSVLTVLHQDWLNGKEYKCKVSNKGLPSSIEKTISKAKGQPREPQVYTLPPCQEEMTKNQVSLWCLVKGFYPSDIAVEWESNGQPENNYKTTPPVLDSDGSFFLYSRLTVDKSRWQEGNVFSCSVMHEALHNHYTQKSLSLSLGK chain 2: EVQLLESGGGLVQPGGSLRLSCAASGFTFGNYDMAWVRQAPGKRPEWVSSIDTGGDITHYADSVKGRFTISRDNAKNTLYLQMNSLRPEDTAVYWCATDEEYALGPNEFDYYGQGTLVTVSSGGGGSGGGGSGPPCPPCPAPEFLGGPSVFLFPPKPKDTLMISRTPEVTCVVVDVSQEDPEVQFNWYVDGVEVHNAKTKPREEQFNSTYRVVSVLTVLHQDWLNGKEYKCKVSNKGLPSSIEKTISKAKGQPREPQVCTLPPSQEEMTKNQVSLSCAVKGFYPSDIAVEWESNGQPENNYKTTPPVLDSDGSFFLVSRLTVDKSRWQEGNVFSCSVMHEALHNHYTQKSLSLSLGK
2 | 6.2 | 90 | NIgG4E4A1(RS) (Fc fusion) chain 1: DVQLQESGGGLVQPGGSLRLSCAASGFRFSNYAMRWYRQAPGKEREFVARISSTGFITRYTASVRDRFTISRDNDKNMMYLQLNKLTPQDTAHYYCNAESTDYWGQGTQVTVSRSGPPCPPCPAPEFLGGPSVFLFPPKPKDTLMISRTPEVTCVVVDVSQEDPEVQFNWYVDGVEVHNAKTKPREEQFNSTYRVVSVLTVLHQDWLNGKEYKCKVSNKGLPSSIEKTISKAKGQPREPQVYTLPPCQEEMTKNQVSLWCLVKGFYPSDIAVEWESNGQPENNYKTTPPVLDSDGSFFLYSRLTVDKSRWQEGNVFSCSVMHEALHNHYTQKSLSLSLGK chain 2: EVQLLESGGGLVQPGGSLRLSCAASGFTFGNYDMAWVRQAPGKRPEWVSSIDTGGDITHYADSVKGRFTISRDNAKNTLYLQMNSLRPEDTAVYWCATDEEYALGPNEFDYYGQGTLVTVSSRSGPPCPPCPAPEFLGGPSVFLFPPKPKDTLMISRTPEVTCVVVDVSQEDPEVQFNWYVDGVEVHNAKTKPREEQFNSTYRVVSVLTVLHQDWLNGKEYKCKVSNKGLPSSIEKTISKAKGQPREPQVCTLPPSQEEMTKNQVSLSCAVKGFYPSDIAVEWESNGQPENNYKTTPPVLDSDGSFFLVSRLTVDKSRWQEGNVFSCSVMHEALHNHYTQKSLSLSLGK
3 | 2.2 | 97 | NIgG4E3A1(G4S)3 (Fc fusion) chain 1: DVQLQESGGGLVQAGGSLRLACAASGRTLSSYVVSWFRQAPGKERKFVAAITWSGLSTTYLDSVQGRFTISRDNTKDTVYLQMNSLKPQDTAIYYCAAGPNIPSILRTRESEYAYWGQGTQVTVSGGGGSGGGGSGGGGSGPPCPPCPAPEFLGGPSVFLFPPKPKDTLMISRTPEVTCVVVDVSQEDPEVQFNWYVDGVEVHNAKTKPREEQFNSTYRVVSVLTVLHQDWLNGKEYKCKVSNKGLPSSIEKTISKAKGQPREPQVYTLPPCQEEMTKNQVSLWCLVKGFYPSDIAVEWESNGQPENNYKTTPPVLDSDGSFFLYSRLTVDKSRWQEGNVFSCSVMHEALHNHYTQKSLSLSLGK chain 2: EVQLLESGGGLVQPGGSLRLSCAASGFTFGNYDMAWVRQAPGKRPEWVSSIDTGGDITHYADSVKGRFTISRDNAKNTLYLQMNSLRPEDTAVYWCATDEEYALGPNEFDYYGQGTLVTVSSGGGGSGGGGSGGGGSGPPCPPCPAPEFLGGPSVFLFPPKPKDTLMISRTPEVTCVVVDVSQEDPEVQFNWYVDGVEVHNAKTKPREEQFNSTYRVVSVLTVLHQDWLNGKEYKCKVSNKGLPSSIEKTISKAKGQPREPQVCTLPPSQEEMTKNQVSLSCAVKGFYPSDIAVEWESNGQPENNYKTTPPVLDSDGSFFLVSRLTVDKSRWQEGNVFSCSVMHEALHNHYTQKSLSLSLGK
4 | 17 | 97 | NIgG4E4A1(G4S)1 (Fc fusion) chain 1: DVQLQESGGGLVQPGGSLRLSCAASGFRFSNYAMRWYRQAPGKEREFVARISSTGFITRYTASVRDRFTISRDNDKNMMYLQLNKLTPQDTAHYYCNAESTDYWGQGTQVTVSGGGGSGPPCPPCPAPEFLGGPSVFLFPPKPKDTLMISRTPEVTCVVVDVSQEDPEVQFNWYVDGVEVHNAKTKPREEQFNSTYRVVSVLTVLHQDWLNGKEYKCKVSNKGLPSSIEKTISKAKGQPREPQVYTLPPCQEEMTKNQVSLWCLVKGFYPSDIAVEWESNGQPENNYKTTPPVLDSDGSFFLYSRLTVDKSRWQEGNVFSCSVMHEALHNHYTQKSLSLSLGK chain 2: EVQLLESGGGLVQPGGSLRLSCAASGFTFGNYDMAWVRQAPGKRPEWVSSIDTGGDITHYADSVKGRFTISRDNAKNTLYLQMNSLRPEDTAVYWCATDEEYALGPNEFDYYGQGTLVTVSSGGGGSGPPCPPCPAPEFLGGPSVFLFPPKPKDTLMISRTPEVTCVVVDVSQEDPEVQFNWYVDGVEVHNAKTKPREEQFNSTYRVVSVLTVLHQDWLNGKEYKCKVSNKGLPSSIEKTISKAKGQPREPQVCTLPPSQEEMTKNQVSLSCAVKGFYPSDIAVEWESNGQPENNYKTTPPVLDSDGSFFLVSRLTVDKSRWQEGNVFSCSVMHEALHNHYTQKSLSLSLGK

The next lines start with the binder.

Row | Binder | EC50 [nM] | Max effect/effect 1 µM [%]
5 | CIgG4E3A1(G4S)3 (Fc fusion) chain 1: GPPCPPCPAPEFLGGPSVFLFPPKPKDTLMISRTPEVTCVVVDVSQEDPEVQFNWYVDGVEVHNAKTKPREEQFNSTYRVVSVLTVLHQDWLNGKEYKCKVSNKGLPSSIEKTISKAKGQPREPQVYTLPPCQEEMTKNQVSLWCLVKGFYPSDIAVEWESNGQPENNYKTTPPVLDSDGSFFLYSRLTVDKSRWQEGNVFSCSVMHEALHNHYTQKSLSLSLGKGGGGSGGGGSGGGGSDVQLQESGGGLVQAGGSLRLACAASGRTLSSYVVSWFRQAPGKERKFVAAITWSGLSTTYLDSVQGRFTISRDNTKDTVYLQMNSLKPQDTAIYYCAAGPNIPSILRTRESEYAYWGQGTQVTVS chain 2: GPPCPPCPAPEFLGGPSVFLFPPKPKDTLMISRTPEVTCVVVDVSQEDPEVQFNWYVDGVEVHNAKTKPREEQFNSTYRVVSVLTVLHQDWLNGKEYKCKVSNKGLPSSIEKTISKAKGQPREPQVCTLPPSQEEMTKNQVSLSCAVKGFYPSDIAVEWESNGQPENNYKTTPPVLDSDGSFFLVSRLTVDKSRWQEGNVFSCSVMHEALHNHYTQKSLSLSLGKGGGGSGGGGSGGGGSEVQLLESGGGLVQPGGSLRLSCAASGFTFGNYDMAWVRQAPGKRPEWVSSIDTGGDITHYADSVKGRFTISRDNAKNTLYLQMNSLRPEDTAVYWCATDEEYALGPNEFDYYGQGTLVTVSS | 162 | 73
6 | CIgG4E3A1(RS) (Fc fusion) chain 1: GPPCPPCPAPEFLGGPSVFLFPPKPKDTLMISRTPEVTCVVVDVSQEDPEVQFNWYVDGVEVHNAKTKPREEQFNSTYRVVSVLTVLHQDWLNGKEYKCKVSNKGLPSSIEKTISKAKGQPREPQVYTLPPCQEEMTKNQVSLWCLVKGFYPSDIAVEWESNGQPENNYKTTPPVLDSDGSFFLYSRLTVDKSRWQEGNVFSCSVMHEALHNHYTQKSLSLSLGKRSDVQLQESGGGLVQAGGSLRLACAASGRTLSSYVVSWFRQAPGKERKFVAAITWSGLSTTYLDSVQGRFTISRDNTKDTVYLQMNSLKPQDTAIYYCAAGPNIPSILRTRESEYAYWGQGTQVTVS chain 2: GPPCPPCPAPEFLGGPSVFLFPPKPKDTLMISRTPEVTCVVVDVSQEDPEVQFNWYVDGVEVHNAKTKPREEQFNSTYRVVSVLTVLHQDWLNGKEYKCKVSNKGLPSSIEKTISKAKGQPREPQVCTLPPSQEEMTKNQVSLSCAVKGFYPSDIAVEWESNGQPENNYKTTPPVLDSDGSFFLVSRLTVDKSRWQEGNVFSCSVMHEALHNHYTQKSLSLSLGKRSEVQLLESGGGLVQPGGSLRLSCAASGFTFGNYDMAWVRQAPGKRPEWVSSIDTGGDITHYADSVKGRFTISRDNAKNTLYLQMNSLRPEDTAVYWCATDEEYALGPNEFDYYGQGTLVTVSS |  | 21
7 | CIgG4E3A1(G4S)1 (Fc fusion) chain 1: GPPCPPCPAPEFLGGPSVFLFPPKPKDTLMISRTPEVTCVVVDVSQEDPEVQFNWYVDGVEVHNAKTKPREEQFNSTYRVVSVLTVLHQDWLNGKEYKCKVSNKGLPSSIEKTISKAKGQPREPQVYTLPPCQEEMTKNQVSLWCLVKGFYPSDIAVEWESNGQPENNYKTTPPVLDSDGSFFLYSRLTVDKSRWQEGNVFSCSVMHEALHNHYTQKSLSLSLGKGGGGSDVQLQESGGGLVQAGGSLRLACAASGRTLSSYVVSWFRQAPGKERKFVAAITWSGLSTTYLDSVQGRFTISRDNTKDTVYLQMNSLKPQDTAIYYCAAGPNIPSILRTRESEYAYWGQGTQVTVS chain 2: GPPCPPCPAPEFLGGPSVFLFPPKPKDTLMISRTPEVTCVVVDVSQEDPEVQFNWYVDGVEVHNAKTKPREEQFNSTYRVVSVLTVLHQDWLNGKEYKCKVSNKGLPSSIEKTISKAKGQPREPQVCTLPPSQEEMTKNQVSLSCAVKGFYPSDIAVEWESNGQPENNYKTTPPVLDSDGSFFLVSRLTVDKSRWQEGNVFSCSVMHEALHNHYTQKSLSLSLGKGGGGSEVQLLESGGGLVQPGGSLRLSCAASGFTFGNYDMAWVRQAPGKRPEWVSSIDTGGDITHYADSVKGRFTISRDNAKNTLYLQMNSLRPEDTAVYWCATDEEYALGPNEFDYYGQGTLVTVSS | 277 | 76
8 | CIgG4E3A1(G4S)2 (Fc fusion) chain 1: GPPCPPCPAPEFLGGPSVFLFPPKPKDTLMISRTPEVTCVVVDVSQEDPEVQFNWYVDGVEVHNAKTKPREEQFNSTYRVVSVLTVLHQDWLNGKEYKCKVSNKGLPSSIEKTISKAKGQPREPQVYTLPPCQEEMTKNQVSLWCLVKGFYPSDIAVEWESNGQPENNYKTTPPVLDSDGSFFLYSRLTVDKSRWQEGNVFSCSVMHEALHNHYTQKSLSLSLGKGGGGSGGGGSDVQLQESGGGLVQAGGSLRLACAASGRTLSSYVVSWFRQAPGKERKFVAAITWSGLSTTYLDSVQGRFTISRDNTKDTVYLQMNSLKPQDTAIYYCAAGPNIPSILRTRESEYAYWGQGTQVTVS chain 2: GPPCPPCPAPEFLGGPSVFLFPPKPKDTLMISRTPEVTCVVVDVSQEDPEVQFNWYVDGVEVHNAKTKPREEQFNSTYRVVSVLTVLHQDWLNGKEYKCKVSNKGLPSSIEKTISKAKGQPREPQVCTLPPSQEEMTKNQVSLSCAVKGFYPSDIAVEWESNGQPENNYKTTPPVLDSDGSFFLVSRLTVDKSRWQEGNVFSCSVMHEALHNHYTQKSLSLSLGKGGGGSGGGGSEVQLLESGGGLVQPGGSLRLSCAASGFTFGNYDMAWVRQAPGKRPEWVSSIDTGGDITHYADSVKGRFTISRDNAKNTLYLQMNSLRPEDTAVYWCATDEEYALGPNEFDYYGQGTLVTVSS | 172 | 94

Source: patent publication US20250171562A1
